Substrate in series [1]: COc1c(O)cc2occ(-c3ccc(O)cc3)c(=O)c2c1O
Description: purified protein. To be noted: 2 mM UDP-glucose, 1 mM DTT, 50 mM PBS, pH 8.0, 30°C, 10 min.

Substrate in series [2]: COc1cc(-c2coc3cc(O)c(OC)c(O)c3c2=O)cc(O)c1OC
Description: HPLC glucosylation assay. As to conditions: 2 mM UDP-glucose, 1 mM DTT, 50 mM PBS, pH 8.0, 30°C, 10 min. It is filed as biochemical, Iris domestica.

Substitutions are numbered along the chain they refer to.

B1: BcUGT5 (Iris domestica) (protein)
chain: MQLKESVVLFPSVGMGHLIPMVELAKLFIGHGFSVTIVVVEPPFDVSTTNHPFISRVSSEYPSISFHRLPKVIPPATSRPPVFAFIETLRLACPHLLDFLKTIRSTSNVRALVLDMFCTSALDVADELGLPSYFFFASGASTLAAFLLLPTLQSKLDGNFRDLGSSPVHFPGLPPVPASDLLIHVQERGEANDEIMFHFKRLPRAKGIMINTMEWLEKRAVEALANGECLPDRTMPPVYCIGPLVASGSNGGGGEGERHECLAWLDAQPEKSVVFLCFGSMGSFSAEQVKEMAVGLERSGQRFLWVVRSPPLKDDPAARPGARPEPDLEALLPEGFLERTKGKGMVVKSWAPQAAVLAHGSVGGFVSHCGWNSTLEAVSSGVPIIAWPLYAEQRMNKVFLVEEAKLAVAMEGYNKDVVSAEEVEKKIRWLMESEDGKALKDRAVEAKEKAVAAWKQEGSSSLAWLELVRAVRKEA
notes: full ORF in pCold-TF, E. coli, His-tag + trigger factor fusion (~105 kDa; UGT ~53 kDa), Ni-NTA
As to B1, in series [1], the Km is 201 ± 15 µM, the kcat was found to be 116.03 ± 6.98 s⁻¹ and the kcat/Km worked out at 577000 M⁻¹ s⁻¹. For the same protein, in series [2], the Km was 121 ± 9 µM, the kcat stood at 296.52 ± 11.8 s⁻¹ and the specificity constant (kcat/Km) is 2.45e+06 M⁻¹ s⁻¹.

B2: BcUGT4 (Iris domestica) (protein)
chain: MQLKESVVLFPSVGMGHLIPMVELAKLFIGHGFSVTIVVVEPPFDVSTTNHPFISRVSSEYPSISFHRLPKVVPPATFRPPVIVLFETLRLACPQLLDFLKTIRSTSNVRALVLDMFCTSALDVADELGLPSYFFFASGASTLAAFLLFPTLQSKLDGNFRDLGSSPVHFPGLPPVPASDLPTQMQERGEANDGIMFHFKRLPRAKGIMINTPEWLEKRAVEALANGECLPDRTMPPVYCIGPLVASGSNGGGGGEGERHECLAWLDAQPKKSVVFLCFGSMGSFSAEQVKEMAVGLERSGQRFLWVVRSPPLKDDPAARPGARPEPDLEALLPEGFLERTKGKGMVVKSWAPQAAVLAHGSVGGFVSHCGWNSTLEAVSSGVPIIAWPLYAEQRMNKVFLVEEAKLAVAMEGYNKDVVSAEEVEKKIRWLMESEDGKALKDRAVEAKEKAVAAWKQEGSSFLAWLELVRAVRKEA
notes: as for B1
Consider B2, for which, in series [1], the Km stood at 115 ± 23 µM, the kcat amounted to 155.18 ± 12.26 s⁻¹ and the kcat/Km was found to be 1.35e+06 M⁻¹ s⁻¹. Moreover, in series [2], the Km came out at 190 ± 7 µM, the kcat amounted to 57.23 ± 18.21 s⁻¹ and the catalytic efficiency (kcat/Km) came to 301000 M⁻¹ s⁻¹.

B3: BcUGT7 (Iris domestica) (protein)
chain: MQLKESVVLFPSVGMGHLIPMVELAKLFIGHGFSVTIVVVEPPFDASTTSGPFISRVSSEYPSISFHRLPKVVPPATSKPPMIVIYETLRLACPHLLDFLKTIRSTAKVRALVLDMFCTSALDVADELGLPSYFFFASGASALAAYLLLPTLQSKLDGNFRDLGSSPVHFPGVPPVPASDLLTHVQERGESNDGIMLHFKRFPRAKGIMINTPEWLEKRAVEALANGECLPDRTMPPVYCIGPLVANGSNGGEGGGERHECLAWLDAQPEKSVVFLCFGSLGSFSGEQLKEMAIGLERSGQLFLWVVRSPPLKDDPAARPGARPEPDLEALLPEGFLERTKGKGMVVKSWAPQAAVLAHGSVGGFVSHCGWNSTLEAVSSGVPIIAWPLYAEQRMNKVFLVEEAKVAVAMEGYDKDIVSAEEVEKKIRWLMESKDGKAMKDRAVEAKEKAVAAWKEDGSSSLAWLELERALRMGA
notes: as for B1
B3: in series [1], the Michaelis constant (Km) is 1269 ± 9 µM, the kcat is 15.86 ± 7.53 s⁻¹ and the kcat/Km is 19800 M⁻¹ s⁻¹. In series [2], the Km is 894 ± 11 µM, the kcat was found to be 17.73 ± 9.89 s⁻¹ and the kcat/Km came to 19800 M⁻¹ s⁻¹.

B4: BcUGT1 (Iris domestica) (protein)
chain: MQLKESVVLFPSMGMGHIIPMVELAKLFIGHGFSVTIVDVEPPFDDSTTKGPFISRISSEYPSISFHRLPKVIPPATSRPPVFAFIETLRLACPHLLDFLKTIRSTTNVRALVLDMFCTPALDVADELGLPSYFFFSSSASILAAFLFFPILQDKLDGNFRDLGSSPIHFPGLPPVPASDLPTQMQERGEANDGIMFHFNSYPRATGIMINTLEWLEKRAIEVLANGECLPDRTMPPVYCIGPLVATGSNEGEGEGEGEKHECLAWLDAQPEKSVVFLCFGSMGSFSAEQVKEIAIGLERSGQRFLWVVRSPPLKDDPAARHGARPEPDLEALLPEGFLERTKEKGMVVKSWAPQAAVLAHGSVGGFVSHCGWNSTLEAVSSGVPIIAWPLYAEQRMNKVFLVEEAKLAVAMEGYNKDVVSAEEVEKKIRWLMESEDGKALKDRAVEAKEKAVAAWKQEGSSFLAWLELVRAVRKEA
notes: as for B1
With B4, in series [1], the Km was 592 ± 49 µM, the turnover number (kcat) amounted to 57.29 ± 4.94 s⁻¹ and the kcat/Km amounted to 96800 M⁻¹ s⁻¹. In addition, in series [2], the Km turned out to be 210 ± 13 µM, the kcat turned out to be 58.88 ± 3.24 s⁻¹ and the kcat/Km came to 280000 M⁻¹ s⁻¹.

B5: BcUGT2 (Iris domestica) (protein)
chain: B4 chain with E344G, N416D, A440V, L441M, W456R, K457M, E459D, F463S
Turning to B5, in series [1], the Km was 392 ± 7 µM, the kcat came out at 70.10 ± 9.86 s⁻¹ and the kcat/Km turned out to be 179000 M⁻¹ s⁻¹.

B6: BcUGT8 (Iris domestica) (protein)
chain: MEFTQSVILYPSLGMGHLIPTLELAKLFIDQGFSVTIVVIDSPPSDTSSTMDSFISRASSAYPSLSFHRLPKVAPPASKLPMVFLSETVRLANASLLDFLSSKKSTSDIRAVVLDMFCSASLDIVEELHLPSYFFFSSSASALAACLFFPTLQSQLAGSFRDLGSSPVHFPGLPPIPASDLPADVQVRGESYDAALAHFVRLPRADGIMINTFESLEKRAVRALVDGVCVPGRATPPVYCIGPLIADGSDGGERHECLAWLDAQPERSVVFLCFGSMGSFSTEQLKETAGGLERSGQRFLWVVRSPPSDPAYPFGPRAETELEALLPEGFLERTRERGMVLESWAPQAAVLAHRSVGGFVSHCGWNSTLEAVCSGVPMLGWPLYAEQRMNRVSLVEEAKVAVAMEGCHNGLVSADEVETKIRRLMESRALGERMAATKERAVAARTEGGESTLALLELVRALRKATPGTGA
notes: as for B1
On to B6, for which, in series [2], the Km is 1423 ± 21 µM, the kcat was 11.97 ± 1.31 s⁻¹ and the kcat/Km was found to be 8410 M⁻¹ s⁻¹.

The values are drawn from article PMC7900552, “Iris domestica (iso)flavone 7- and 3′-O-Glycosyltransferases Can Be Induced by CuCl2” (Frontiers in Plant Science, 2021).
